From US20110207221

How the values were obtained:
Assay in all cases: cell_activity
[1] = test system: ZFN 16245 (POU5F1) (synthetic); conditions: K562; two ZFN pairs co-transfected, deletion only with both
[2] = test system: ZFN 11177 (BAK del. B) (synthetic); conditions: CHO-K1; BAK deletion B, two ZFN pairs
[3] = test system: ZFN 10344 (BAK) (synthetic); conditions: CHO-K1; BAK deletion, two ZFN pairs
[4] = test system: ZFN 16248 (POU5F1) (synthetic); conditions: K562; two ZFN pairs co-transfected
[5] = test system: ZFN 16247 (POU5F1) (synthetic); conditions: K562; two ZFN pairs co-transfected
[6] = test system: ZFN 11183 (BAK) (synthetic); conditions: CHO-K1; BAK deletion, two ZFN pairs
[7] = test system: ZFN 10311 (BAK) (synthetic); conditions: CHO-K1; BAK deletion, two ZFN pairs
[8] = test system: ZFN 10317 (BAK del. A) (synthetic); conditions: CHO-K1; BAK deletion A, two ZFN pairs
[9] = test system: ZFN 10342 (BAK) (synthetic); conditions: CHO-K1; BAK deletion, two ZFN pairs
[10] = test system: ZFN 16246 (POU5F1) (synthetic); conditions: K562; two ZFN pairs co-transfected

## AAGCTGGTCTGGTGGCTAGGTAGATCCT (double strand) [POU5F1 site of 16245]
[1]
  activity (% cells with deletion): 4

## AGGATTAGGAGGATGGGATTTGGCACTG (double strand) [BAK site of 11177]
[2]
  activity (% cells with deletion): 1

## ATCAGGAAGAGGCTGGGTGTCACAGCGT (double strand) [BAK site of 10344]
[3]
  activity (% cells with deletion): 1

## ATGAGTCAGTGAACAGGGAATGGGTGAA (double strand) [POU5F1 site of 16248]
[4]
  activity (% cells with deletion): 4

## ATGTAACAAAGGACTACTCTTCCCCCAG (double strand) [POU5F1 site of 16247]
[5]
  activity (% cells with deletion): 4

## CACGGGCCCAGGGTGGGGCAGAAAGCCC (double strand) [BAK site of 11183]
[6]
  activity (% cells with deletion): 1

## CAGCACGGGCCCAGGGTGGGGCAGAAAG (double strand) [BAK site of 10311]
[7]
  activity (% cells with deletion): 1

## GCCAGGATTAGGAGGATGGGATTTGGCA (double strand) [BAK site of 10317]
[8]
  activity (% cells with deletion): 1

## GCGGCCAGGCCAAGGCAGACTTTCTGAC (double strand) [BAK site of 10342]
[9]
  activity (% cells with deletion): 1

## GGGCTCTGGAAGGCCCACTTCAGGGCCT (double strand) [POU5F1 site of 16246]
[10]
  activity (% cells with deletion): 4
